# Assay results from article PMC11199686.
# pKd: −log10 of the molar value.
# How the values were obtained:
# [1] = biological target: fibrin clots formed in human plasma (human (endogenous in plasma)) (UniProt P02679); assay: co-sedimentation; clots formed in 45% human plasma with 20 mM CaCl2 in the presence of 125I-ligand (25,000 cpm), 40 min, 37°C, at about 70 mM, 140 mM or 1 M salt; clots spun at 1,000 x g and washed three times in reaction buffer; bound = input minus cpm in supernatants
# [2] = biological target: fibrin clots formed in human plasma (human (endogenous in plasma)) (UniProt P02679); assay: cross-linking; 125I-ligand (25,000 cpm) with 0.9% plasma and 20 μg fibrinogen in 50 μl HEPES-1/2-saline, 20 mM CaCl2, 16 h, 37°C; cross-linking by the FXIIIa of the plasma; washed clots on reducing SDS-PAGE (4-12%), autoradiography
# [3] = biological target: fibrin made from purified fibrinogen with thrombin (UniProt P02679); assay: radioligand binding; saturation: fixed 125I-factor H (250,000 cpm, 80 ng/well) mixed with unlabeled factor H (0-5,120 ng/well) on fibrin-coated wells; 30 min, 37°C
# [4] = biological target: fibrin clots formed in human plasma (human (endogenous in plasma)) (UniProt P02679); assay: co-sedimentation; enhanced clots: as the plasma clots but with extra fibrinogen (2 mg/ml) added; 40 min, 37°C; 70 mM, 140 mM or 1 M salt; washed with reaction buffer (HEPES-1/2-saline at 70 mM)
# [5] = biological target: fibrin made from purified fibrinogen with thrombin (UniProt P02679); assay: radioligand binding; inhibition: 125I-factor H (2 μg/well) premixed on ice with unlabeled factor H (0-30 μg/well) or ovalbumin, on fibrin-coated wells; 30 min, 37°C
# [6] = biological target: fibrin clots formed in human plasma (human (endogenous in plasma)) (UniProt P02679); assay: co-sedimentation; time course: enhanced clots formed in plasma with 125I-ligand (25,000 cpm), eight times from 0 to 960 min at 37°C; washed three times with 10 mM HEPES, 70 mM NaCl, 0.5 mM EDTA, 5 M urea pH 7.4; what stays is judged covalently bound
# [7] = biological target: fibrin made from purified fibrinogen with thrombin (UniProt P02679); assay: radioligand binding; 125I-ligand (100,000 cpm) on fibrin-coated wells in veronal buffer ([…] sodium barbital, […] CaCl2, 0.5 mM MgCl2, pH 7.4) with 20, 75 or 150 mM NaCl; 30 min, 37°C; washes at the same NaCl
# [8] = biological target: fibrin clots formed in human plasma (human (endogenous in plasma)) (UniProt P02679); assay: co-sedimentation; time course: enhanced clots formed in plasma with 125I-ligand (25,000 cpm), eight times from 0 to 960 min at 37°C; washed with HEPES-1/2-saline (non-denaturing)
# [9] = biological target: fibrin clots formed in human plasma (human (endogenous in plasma)) (UniProt P02679); assay: co-sedimentation; panel of 125I-labelled plasma proteins (25,000 cpm each) present while enhanced clots formed in plasma; 16 h, 37°C; clots washed three times in 10 mM HEPES, 70 mM NaCl, 0.5 mM EDTA, 5 M urea pH 7.4
# [10] = biological target: fibrin made from purified fibrinogen with thrombin (UniProt P02679); assay: co-sedimentation; fibrin-only clots: 3.5 mg/ml purified fibrinogen with 125I-ligand (25,000 cpm) in 10 mM HEPES, 70 mM NaCl, 5 mM CaCl2 pH 7.4, clotted with thrombin (8.75 μg/ml), 40 min, 37°C; washed with HEPES-1/2-saline
# [11] = biological target: fibrin made from purified fibrinogen with thrombin (UniProt P02679); assay: radioligand binding; serial dilutions of 125I-ligand from 500,000 cpm/well on fibrinogen-, fibrin- or BSA-coated Maxisorp wells; 30 min, 37°C; 25 mM HEPES-0.1% Tween 20 pH 7.4 (20 mM in the legend), without or with 5 mg/ml fluid-phase BSA; bound label eluted with 0.1 M NaOH; Scatchard plot
# [12] = biological target: fibrin clots formed in human plasma (human (endogenous in plasma)) (UniProt P02679); assay: ELISA; levels of endogenous factor H (captured on monoclonal MRCOX23) and C1q (captured on ovalbumin antigen-antibody complexes) in citrated plasma and in the serum from the same plasma; the loss on clotting is taken as binding to clots
# Sequence of factor H (P08603 19-1231): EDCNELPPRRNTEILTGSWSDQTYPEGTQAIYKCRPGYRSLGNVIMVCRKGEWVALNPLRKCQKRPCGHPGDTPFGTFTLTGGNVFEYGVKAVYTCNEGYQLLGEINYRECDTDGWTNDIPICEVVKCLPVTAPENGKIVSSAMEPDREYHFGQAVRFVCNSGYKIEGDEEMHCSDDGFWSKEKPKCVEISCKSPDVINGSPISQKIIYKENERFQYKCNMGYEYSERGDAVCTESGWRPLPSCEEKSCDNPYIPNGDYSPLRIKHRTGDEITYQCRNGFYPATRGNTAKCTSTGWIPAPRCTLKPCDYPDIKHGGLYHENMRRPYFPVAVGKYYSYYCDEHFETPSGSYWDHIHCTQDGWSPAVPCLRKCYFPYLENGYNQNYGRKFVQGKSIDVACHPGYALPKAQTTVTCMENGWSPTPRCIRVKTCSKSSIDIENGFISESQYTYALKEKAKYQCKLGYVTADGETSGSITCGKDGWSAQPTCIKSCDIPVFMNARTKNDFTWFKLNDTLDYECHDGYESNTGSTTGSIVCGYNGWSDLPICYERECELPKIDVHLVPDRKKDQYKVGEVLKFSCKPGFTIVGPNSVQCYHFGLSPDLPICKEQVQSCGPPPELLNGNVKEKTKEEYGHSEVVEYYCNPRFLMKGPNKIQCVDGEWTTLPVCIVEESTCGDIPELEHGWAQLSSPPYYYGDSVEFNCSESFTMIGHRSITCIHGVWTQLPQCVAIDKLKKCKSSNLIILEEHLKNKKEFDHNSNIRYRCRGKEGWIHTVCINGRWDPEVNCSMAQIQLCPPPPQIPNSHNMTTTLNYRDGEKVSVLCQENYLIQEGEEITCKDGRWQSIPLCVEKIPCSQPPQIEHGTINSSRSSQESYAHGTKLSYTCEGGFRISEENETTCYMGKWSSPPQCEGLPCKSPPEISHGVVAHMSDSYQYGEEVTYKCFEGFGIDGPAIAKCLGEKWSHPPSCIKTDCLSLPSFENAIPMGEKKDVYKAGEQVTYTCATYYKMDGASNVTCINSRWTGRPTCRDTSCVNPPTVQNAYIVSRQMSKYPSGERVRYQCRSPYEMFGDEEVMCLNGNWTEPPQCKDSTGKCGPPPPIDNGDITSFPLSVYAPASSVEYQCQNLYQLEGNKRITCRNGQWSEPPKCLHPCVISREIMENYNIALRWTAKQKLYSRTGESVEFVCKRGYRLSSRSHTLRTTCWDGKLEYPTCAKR
# Sequence of UniProt P02679 (P02679 whole entry, looked up): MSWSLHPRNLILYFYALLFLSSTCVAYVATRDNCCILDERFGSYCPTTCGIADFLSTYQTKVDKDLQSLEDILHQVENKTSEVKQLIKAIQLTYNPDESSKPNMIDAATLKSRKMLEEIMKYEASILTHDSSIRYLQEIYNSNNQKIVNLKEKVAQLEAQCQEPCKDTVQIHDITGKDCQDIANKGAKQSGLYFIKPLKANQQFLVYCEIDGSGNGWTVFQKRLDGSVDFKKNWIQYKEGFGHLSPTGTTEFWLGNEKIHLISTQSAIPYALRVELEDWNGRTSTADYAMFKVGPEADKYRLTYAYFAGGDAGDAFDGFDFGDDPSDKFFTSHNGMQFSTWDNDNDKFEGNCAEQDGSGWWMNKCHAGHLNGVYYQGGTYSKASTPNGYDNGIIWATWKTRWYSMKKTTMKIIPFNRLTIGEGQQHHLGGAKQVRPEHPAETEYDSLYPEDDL
Substance,percent bound to plasma clots at 70 mM salt [1] [%],percent of 125I-factor H in the large cross-linked aggregate that did not enter the gel [2] [%],percent of input bound at saturation (input 3.5 μg/well) [3] [%],"fold increase of percent bound, enhanced clots over plasma clots without added fibrinogen, at 140 mM NaCl [4] [fold]",percent bound to enhanced plasma clots (HEPES-1/2-saline wash) [4] [%],percent inhibition of the binding of 125I-factor H at an equal molar ratio of unlabeled to labeled factor H [5] [%],"percent bound at 30 min, after urea wash [6] [%]","percent bound at 96 min, after urea wash [6] [%]","percent bound at 960 min, after urea wash [6] [%]",binding at 75 mM NaCl relative to that at 20 mM NaCl [7] [%],"percent bound at 30 min, non-denaturing wash [8] [%]","percent bound at 96 min, non-denaturing wash [8] [%]",Protein incorporated into fibrin clots (%) [9] [%],percent bound to fibrin clots [9] [%],percent bound to fibrin-only clots (HEPES-1/2-saline wash) [10] [%],pKd [11],"percent of input bound (500,000 cpm/well) [11] [%]",percent of the plasma level lost in the serum of the same plasma (healthy volunteer sample) [12] [%]
factor H (from UniProt P08603 19-1231) (natural protein),21.5,5.2,0.1,6,21.5,48,13,18,32.5,< 50,22,26,28.7,30,19,10.26,1.7,38
plasminogen (natural protein),,,,,,,,,,,,,32.8,31,,,,
